Experimental data from a protein production outcome set (Wang et al. 2014).

Assay: label from the status in PepcDB records
In the case of “MQDQTEAVRFLSDPATHGGAPVERVETHGAFVFLAGSQAFKIKRAVRYDYMDLSTLALRHRMLARELELNRPAAPAIYRDLVAVTREPEGLALGGPGEPVEWVLRMWRFPAEDELSAVAERGALDDRLAARLGRSLAAYHRAAPVRSSDGAALVEAILDELGRVFAGMEDGLGAERIARFGTQARDMLARTKPLLRARSEAGRVRRGHGDLHLRNLVLIEGEPVPFDALEFDETLGTCDILYDLAFLLMDLDHRGLTRAAGIALAAWLFEMRGDEDGGLAALPLFLAVRAAIRGMVLVQTDAARGAPGHSDAEARGLLDEALRALSPPPPRLLAIGGVSGSGKTVLAAALAPRLGLPPGAIHLRSDLERKSRAGVPTDRRLGGAAYGEDARHAVYGQMLARAGAILAAGWPVILDATFLDPADRAAARALAAERGVPLEGLWLEAPPDLLVARVSTRRSDASDADEAVVRAQLARQPRAGDWRTLDTGRPPEEVAHSACRALGLD”, the protein production is reported as “failed”. With “MQDRCPHQDHRSIPTIMPDLEPDTVSALEAPEFAPAQFVRWFREVAPYVHAFRGKTFVVAFGGELVQAGALNVLVQDLSLLSALGIHLVLVHGSRPQVNEQLRLKGYTQQFGRGLAPTDPAALECAKEAAGEIRLDIEAAFSQGLPNTPMSHSHIRVLSGNFVTARPTGVVDGIDYKHTGQVRKIDVDALKFAIEQGSVVLLSPLGFSPTGDAFNLAMEDLATSVAVALRAEKLIFLSGEPGVLDGNGAVDTELARVDADALLARGELDEDTTYFLQHASLAVKRGVARAHLVPYALDGSVLLEIFTHDGVGTMVVEDTLDDLRAATLDDVGAILSLIEPLETDGTLVPRPRSAIERDVERFTVLEHDGVIYGCAALYPFPEDQMAEMACLIVHPEWQGSGEGEILLRHMESRARASGARRLFVLTTRTSHWFMKRGFVRGGVADLPRDKQNNYNRSRNSLVFIKKL” the protein production was “failed”. With “MQDSSSQHEPLWDRFGDLTVWKRGDQRAPHKPLLILYALGRLAQGDRWLRFSDIEEDLTDLLIEFGPPRQSHHPEYPFWHLRSDGVWVVPEADVLEMRQSASNPPKTELREKEARGGFSDDIHQAFRNDSELRRGIARLLLSSHFPTSLHEDIATAVSLDLEGAASERRDPEFRTQVLQAYQYRCAICGFNLQLGMSGTPIGVEAAHIKWKQARGPDEISNGIALCALHHKMLDKGALHVTEDLRLFVSEAVHGSQPHLSRLQDRHGNRIHTPQRETYYPNGEVVTWHVNEVFRGPPRV” the protein production was “failed”. In the case of “MQEKIHWITNLRGIACMMVVMIHSTSWYITHPHAITLLQWDIANLLNSASRVSVPLFFMISGYLFFGERSAQPRHFWRIGLCIAFYSALSLLYITLFTHINVELSLKNLLQKPVFYHLWFFFAITVIYLLSPLLQVKSTSSTMLLALMAILGILANPNMVSVKAAGIEWLPVNLYINGDTFYYVLYGVLGRAIGTLDTDKKWLTPLCAALFIAAVWVISRGTLHELRWRGDFGDTWYLYCGPAVFVCAVTLLTLAKNWLNARPLPGIACIARHSLGIYGFHALIVHALRASHLELSRWPLLDIVWIFSAALLGSLLLSGLVQRIDSRRLVS”, the protein production is reported as “failed”. For “MQELSPAELGEQVQDDDGPLVLDIRHEEDFQEWHIPGSRNVDVYDELTDDPEQAIEPLDDLPSDEQIVTVCAAGVVSQTATAVLRELGYDAVTLTDGMNGWSRVHRHAELPVDVDGTLVQVARPGKGCLSHVLVSDGEAAVFDPSHYLNEYDTVLDEYDAELVGVFDTHAHADHVSGAADLADRHDVPYYLHQKDALAVDATPLEDGQTVTVGRLDIEVIHTPGHSEGSVSFDVEGAALLTGDTLFHDSVGRVELGVEAGIEDADVEGNAATLYESLQRLLDRPDDALVLPAHDPGSPEPPVAATLAEVRERNDDLGRDREAFVEELASDIPDHPPNFERVKRTNVGQESVPEEELAELELGPNNCAAE”, the protein production was “failed”. For “MQEQRQQLLRSLEALIFSSEEPVNLQTLSQITAHKFTPSELQEAVDELNRDYEATGRTFRIHAIAGGYRFLTEPEFADLVRQLLAPVIQRRLSRSMLEVLAVVAWHQPVTKGEIQQIRGASPDYSIDRLLARGLIEVRGRADSPGRPLQYGTTEVFLDLFHLPSLKDLPKLREIKEILQEHEEQQYLAADGDLPVAADEDEKPRMERIE”, the protein production was “not failed”. In the case of “MQEQWGYVAISFIIGIAIAFSSSLLLIVFCLFLNVFFCLYRTSRKTFIFCIVACFSSVIYTSYVQTWNKPLGESYGVTRGVIQNTPLVNGDRLSFQFEDQNKNIVQLSYRIKSALEKKKMQQLYAGISCVFEGERKEPETARNFHGFNYRDYLYKQHIHFTFEATYISECYKTSLSLTQWILLLRQQAISKVTEMFPEQSGAFMNALLFGDRQQMTFEVEEQYQQFGLVHLLAISGSHIVLLMVIVYFILLRSGATREVATICLIVCIPLYMVLAGASPSVIRASITGVLMLIAFMCSIRLSSLDALSVTAICMLIYDPYLVFNIGFQFSFVGSFALLLSAPLLLGSSNGVIRNSIYISIISQLVSTPILLYHFGYFSPYSILLNLLYVPFLSIIVLPCSIIILLCMPIVPFLAKGFADVLSIGLSMSNDFLSYCESLPFTQLIFGETPLNLVAVYCASIVSILMVWERRAPKKIVCIVASVFLFISTCHYIYPYFRGSGSVTFIDVGQGDAILIRLPYDKGIYLIDTGGTLRVNKEEWQQKKHEFSVGNDVLIPFLQKEGIKTIDKLIVTHGDADHIGAAQELLSYIPVKEVVFGRKGKDAVLEKVVKKQALEKEMKITEVGEGASWSVNEAEFFVLAPKGKEKSENNASIVIWAKFGGLKWLFTGDLEEEGEKILVEAYPDLQVDVLKVAHHGSNTSSIEPFLNVMQPRVAIISVGKQNRYGHPHKEVIERFEKMGSAIWRTDKQGAISYVFKGENGTFKSKITYDKTHNR”, the protein production is reported as “failed”. For “MQESGCRLEHPSATKFRNHVMEGDWDKAENDLNELKPLVHSPHAIVVRGALEISQTLLGIIVRMKFLLLQQKYLEYLEDGKVLEALQVLRCELTPLKYNTERIHVLSGYLMCSHAEDLRAKAEWEGKGTASRSKLLDKLQTYLPPSVMLPPRRLQTLLRQAVELQRDRCLYHNTKLDNNLDSVSLLIDHVCSRRQFPCYTQQILTEHCNEVWFCKFSNDGTKLATGSKDTTVIIWQVDPDTHLLKLLKTLEGHAYGVSYIAWSPDDNYLVACGPDDCSELWLWNVQTGELRTKMSQSHEDSLTSVAWNPDGKRFVTGGQRGQFYQCDLDGNLLDSWEGVRVQCLWCLSDGKTVLASDTHQRIRGYNFEDLTDRNIVQEDHPIMSFTISKNGRLALLNVATQGVHLWDLQDRVLVRKYQGVTQGFYTIHSCFGGHNEDFIASGSEDHKVYIWHKRSELPIAELTGHTRTVNCVSWNPQIPSMMASASDDGTVRIWGPAPFIDHQNIEEECSSMDS”, the protein production was “failed”. For “MQESVVRVDYDSLETCKNFKPSVGTELIVLEKDIAHARFKGNESMVYEENFVHAGFVLIACNYAALCALNKRHSVVVSNNINFYAPLELNQEALIKAQVIQDGVKKAEIKIEAFVLDIQVLEGMIEIVVFDKKPFKFNFKEE”, the protein production was “failed”. For “MQETDNLLKTLNVKSLLEALLVYTPKGYKDLNLLERFETGLSGVLEVGILEKRNYAKVLKIFAYSKRFYKNLELVFFNYSAFHHSQFKTGESLFIYGKLEQSSFNQAYIINTPKIITKFGKISLIFKKVKNHKKIQENLQKLISLENLKKEGVKENIAHLLLEIFFPTPHFVKDFETNKNFPSQHLNALKYIEMLFYMKNLERKKLQFGAKIACPNNNERLKAFIASLPFKLTRDQQNAIKEIQNDLTSSIACKRLIIGDVGCGKTMVILASMVLTYPNKTLLMAPTSILAKQLYNEALKFLPPYFEVELLLGGSYKKRSNHLFETITHVVIGTQALLFDKRDLNEFALVITDEQHRFGTKQRYQLEKMASSKGNKPHSLQFSATPIPRTLALAKSAFVKTTMIREIPYPKEIETLVLHKRDFKIVMEKISEEIAKNHQVIVVYPLVNESEKIPYLSLSEGASFWQKRFKKVYTTSGQDKNKEEVIEEFRESGSILLATTLIEVGISLPRLSVMVILAPERLGLATLHQLRGRVSRNGLKGYCFLCTIQEENERLEKFADELDGFKIAELDLEYRKSGDLLQGGEQSGNSFEYIDLAKDENIIAEVKRDFLKAASVSRGTFEN”, the protein production was “failed”. In the case of “MQEVHDYGIKFWSNNEFKIEKGLVKVCHGKNPSLLEIVQSVRDKGYRGPLLVRFPHLVQKQIKSLFDAFSSAIKEYQYSGAFKAVFPLKVNQMPSFVFPLVQGAKGLNYGLEAGSKSELIIAMSYTNPKAPITVNGFKDKEMIELGFIAKSMQHEITLTIEGLNELKTIIAVAKQNEFLACPKIGIRIRLHSTGTGVWAKSGGINSKFGLSSTEVLEAMRLLEENDLLEHFHMIHFHIGSQISDISPLKKALREAGNLYAELRKMGAKNLNSVNIGGGLAVEYTQHKHHQDKNYTLEEFSADVVFLLREIVKNKQEIEPDIFIESGRYISANHAVLVAPVLELFSHEYNEKSLKIKENNNPPLIDEMLDLLANINEKNAIEYLHDSFDHTESLFTLFDLGYIDLIDRSNTEVLAHLIVKKAVQLLYVKDHNDILRIQEQVQERYLLNCSFFQSLPDYWGLRQNFPVMPLNKLDEKPTRSASLWDITCDSDGEIAFDSTKPLFLHDIDIDEEEYFLAFFLVGAYQEVLGMKHNLFTHPTEFSVVFDEKGDYEVEDICEAQTILDVLDDLDYDTKEIERLLKQKIEDNNQLDMEEKKEIMGRLYVMLSENGYLRTIS”, the protein production is reported as “failed”. With “MQFFTSDTHFFHKDLLGDSDFAPRPFASVDEMNQTIIDNWNARVAETDTVYHLGDIALYFTKPAIKSDEAVFNVLSQLNGHLELIKGNHDSRALFKYLAAHNFSDHGQPKFAFHDVGALIKYDHRQYYLTHYPMMLGIVNQIINLHGHIHHYAVPVKENINVGVDTPEQRYLTTSVPFGTPFSPTEIEQMVTGKAQEFREKQLEHHHHHH” the protein production was “failed”. For “MQFKNTPQRYGVVSAALHWLTALVVYGMFALGLWIVTLSYYDGWYHQAPEIHKSIGILLMMALIVRIIWRLYSPPPVALTSYSRLTRASAAAGHLLLYLLLFAIIISGYLISTADGKPISVFSWFEIPATLTDAGAQADIAGTLHLWFAWSLVIISLSHGVMALKHHFIDKDDTLKRMTGMSSSDYGAQK”, the protein production was “failed”. With “MQGKKFISPGAWFSMNYPSDWNEFEDGEGSFLFYNPDVWTGNFRISAFKGNASYGKDAIRQELKENDSASLVKIGTWDCAYSKEMFQEEGTYYTSHLWITGTGNIAFECSFTVPKGGSAKEAEEVIATLEARKEGEKYPAELIPVRLSEIYQINEGYEWVVSTVKQELKKDFQGVEEDLEKIQQVIDSGKISPKKKDEWLAIGITVCAILTNEVEGMEWKTLIDGNREVPVLEYQGRTIDPMKIAWSKVKAGQPCNIAEAYQSAIDHH” the protein production was “not failed”. For “MQHTEERELKKRLMNTARTVSEMTEVKEALARKKQTEAVRHAVEEIRMINEADYIVVMDMNHIRYTHPVSTSIGKKSEGADEEAAFAEHIYFSEAKGEIGTAVRAFYPVKDQDLNQIGVVLVGKTLPGIADILLHLKRDI”, the protein production was “failed”. With “MQIDHGSRQPYYAQIVTGIEQDIAHGVLQSGEQLPSVREMARQHLLNPNTVSKAYKRLETQQIIETVPGKGTYVKVVDSTLFRQELREQFTQIVRLAGQRGVSIAELHGWLDQMGEK” the protein production was “failed”. With “MQIPHGELRTLTYHSNALKSERQMYVWTPPGYSESSKPLPVLYFYHGFGDTGASAVVQGRIPQMMDNLLAEKKIEPMLVVIPDTETDVPGIIPEEYPPQERRKVFYPRNALAADRELIHDIIPAIGKRFNVRQDANGRALAGLSQGGYQALVSGMSHLDHFGWLATFSGVTTETVPNMAVAAQLERPEQINQQLKNLTVVIGETDNITGKDIAGLKTMLEQKNIRFDYTHYPNLGHEMDVWRPAYSEFVQKLFKLEHHHHHH” the protein production was “not failed”. In the case of “MQIQQMLENRIEELEMKIAFQEQLLDELNHALVQQQFDIDKMQVQLRYMANKLKDFQSSNIASQSEETPPPHY”, the protein production is reported as “not failed”. With “MQIRLAFPNEIDQIMLLIEEARAEIAKTGSDQWQKEDGYPNRNDIIDDILNGYAWVGIEDGMLATYAAVIDGHEEVYDAIYEGKWLHDNHRYLTFHRIAISNQFRGRGLAQTFLQGLIEGHKGPDFRCDTHEKNVTMQHILNKLGYQYCGKVPLDGVRLAYQKIKEKGETSIYREIDERNPM” the protein production was “not failed”.
